From the nanobody polyreactivity screen of Harvey et al. (2022)

Test: yeast display, Sf9 membrane polyspecificity reagent, FACS + sequencing; frameworks hold sequencing errors
Summary of the method: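 Galactose-induced (36–48 hours) yeast carrying a synthetic nanobody display library were exposed to 10% biotinylated, detergent-solubilized Sf9 membrane reagent at 4 °C for 1 hour. FACS followed streptavidin microbead enrichment, using low and high (top ~1%) gates for expression (anti-HA) and reagent binding (streptavidin). Colony PCR, MiSeq 2 × 250 sequencing and CDR-length filtering followed. Labels for polyreactivity reflect the gate of origin.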

Row | Sequence | polyreactivity (PSR sort gate)
1 | QVQLVESGGGIVQAGGSLRLSSAASGFIFRYYAMGWYRQARGNEREWVAAISSGGRTSYADSVKGRFTISRDNAKNTVYLQMNSLTPEDTAVYYCAADRWRCLFYYGNDYWGQGTQVTVSS | high polyreactivity
2 | QVQLVESGGGLVQAGGSLRLSCAASGSIFVLYAMGWYRQAPGKERELVAAITASGGSTHYADSVKGRFTISRDNAKNTVYLQMNSLKPEDTAVYYCNADVYTEYDYWGQGTQVTVSS | low polyreactivity
3 | QFQLVESGGGLVQAGGSLRLSCAASGITFQYYAMGWYRQAPGKERDFVAAISWRSGRTYYADSVKGRFTISRDNAKNTVYLQMNSLKPEDTEVYYCAAVVHIQRSTRDYWGQGTQVTVSS | high polyreactivity
4 | QVQLVESGGGLVQAGGSLRLSCAASGIIFYLYAMGWYRQAPGKERELVAAISGSGGNTYYADSVKGRFTISRDNAKNTVYLQMNSLKPEDTAVYYCAVAVFVWYAVIPYAEYDYWGQGTQVTVSS | high polyreactivity
5 | QVQLVESGGVLVQAGGSLRLSCAASGRTFIFYAMGWYRQAPRKERELVAAITYSGTSTYYADSVKGRFTISRDNAKNTVYLQMNSLKPEDTAVYYCAKDGQRDANYYWGQGTQVTVSS | low polyreactivity
6 | QVQLVESGGGLVQAGGSLRLSCAASGLIFQVYDIGWYRQAPGKERELVAAISSGSNTNYADSVKGRFTISRDNAKNTVYLQMNSLKPEDTAVYYCAADFQYYFFWEEDYWGQGTQVTVSS | low polyreactivity
7 | QVQLVESRGGLVPAGGSLRLSCAASGSTVRDYTMGRYRQAPGKEREVGAAITRRSASTYYADSVKGRFTISRDNAKNTVYLQLNSLKPEDTAVYYCAVRTNGPFEYWGQGTQVTVSS | high polyreactivity
8 | QVQLVESGGGLVQAGGSLRLSCAASGRTFGRYAMGWYRQAPGKERELVAAISWRGSSTSYADSVKGRFTISRDNAKNTVYLQMNSLKPEDTSVYYCNAKRSGGYGGYDYWGQGTQVTVSS | high polyreactivity
9 | QVQLVESGGGLVQAGGSLRLSCAASGRTFSYAMGWYRQAPGKERELVAAITSGGSTYYADSVKGRFTISRDNAKNTVYLQMNSLKPEDTAVYYCAKLLGNYARYDYWGHGTQVTVSS | high polyreactivity
10 | QVQLVESGGGLVQAGGSLRLSCAASGSIFDNNAMGWYRQSPGKEREFVAAISWIGGSTSYADSVKGRFTISSDNAKNTVYLQMNSLKPEDTAVYYCNSLRYYPYGLPIYDYWGQGTQVTVSS | low polyreactivity
11 | QVQLVESGGGLVQAGGSLRLSCAASGRTFLWYAMGWYRQAPGKEREFVAAITSSGGDTYYADSVKGRFTISRDNAKNTVYLQMNSLKPADTAVYYCAARTRKWFDYAIHYYWGQGTQVTVSS | low polyreactivity
12 | QVQLVESGGGLVQAGGRLRLSCAASGSIFHYNAMGWYRQAPGKESELVAAITTSGGSTYYADSVKGRFTISLDNAKNSVYLQMNSLKPEDTAVYYCNVVTRYYTMEYWGQGTQVTVSS | high polyreactivity
13 | QVQLVESGGGLVQAGGTLRLSCAASGRTFRQNAMGWYRQAPGKERELVAAISVNGGRTYYADSVKGRFTITRDNAKITVYLQMNSLKPEDTAVYYCAAESYRIPRRSGYDYWGQGTQVTVSS | high polyreactivity
14 | QVQLVESGGGLVQAGGSLRLSCAASGSTFGYYGMGWYRQAPGKERELVAAISTGGRTNYADSVKGRFTISRDNAKNTVYLQMNSLKPEDTAVYYCAADFLSAAYRPSWYRFDYWGQGTQVTVSS | low polyreactivity
15 | QVQLVESGGGLVQAGGSLRLSCAASGFIFYRYTLGWSRQAPGKERELVAAITSGGSTYYADSVKGRFTISRDNAKNTVYLQMNSLKPEDSAVYYCAAAYQRWFNRRDYWGQGTQVTVSS | high polyreactivity
16 | QVQLVESGGGLVQAGGSLRLSCAASGSTFRHNAMGWYRQGPGKERELVATIRTSGGTTYYADSVKGRFTISRDNAKNTVYLQMNSLKPEDTAVYYCAAVSYLFLYQGYPIAYPMYYWGQGTQVTVSS | low polyreactivity
17 | QDQLVESGGGLVQAGGSLRLSCAASGLIFGYYAMGWYRQAPGKERELVAVISYSGGSTYYADSVKGRYTISRDNAKNTVYFQMNSMKPEDTAVYYCNTYRAYYRHTKEYGYWGQGTLVTVSS | high polyreactivity
18 | HVQLVESGGGLVQAGGSLRLSCAASGRISIRNAMGWYRQAPGKERELGAAISRSGGSTYYADSVKGRFTISRDNAKNTVYIQMNSLKPEDTAVYYCAASFWSSGQWYDYWGQGTQVTVSS | high polyreactivity
19 | QLQLVESGGGLVQAGGSLRLSCAASGRIFTYNALGWYRQAPGKERELVARIRRSGGTYYADSVKGRFTISRDNAKNTVYLQMNSLKPEDTAVYYCAVDLYIYYREYDYWGQGTQVTVSS | high polyreactivity
20 | PVQLVESGGGLVQAGGSLLLSCAASGRTFIYYAMGWYRQAPGKERELVAGISRHGGRTYYADSVKGRFTISRDNAKNTVYLQMNSLKPEDTAVYYCNAYPPSGHDYWGQGTQVTVSS | high polyreactivity
21 | QVQHVESAGGLVQAGGSLRLSCAASGGIFWVYAMGWSRQAPGTERELVAAISNSDTSTSYADSVKGRFTISRDNAKNTVYLQMNSLKPEDTAVYYCNAVSPSLSGDYWGQGTQVTVSS | low polyreactivity

Row | Sequence | polyreactivity (PSR sort gate)
22 | QVQLVESGGGLVQAGGSLRLSCAASGYTFGWYAMGWYRQAPGKERELVAAITSDGSTYYADSVKGRFTISRDNEKNTVYLQMNSLIPVDTAVYYCAADATFDSDWGQGTQVTVSS | low polyreactivity
23 | QVQLVESGGGLVQAGGSLRLSCASSGTIFKYSAMGWYIQAPGKEREFVAGISWSGGRTYYADSVKGRFTISRDNAKITVYLHMNSLKPEDTAVYYCARVRLTSYGYYSWGQGTQVTVSS | high polyreactivity
24 | QVQLVESGGGLVQAGGSLRLSCAASGFTFRFYAMGWYRQAPGKERELVAAISRSGGDTYYADSVKGRFTISRDNAKNTVYLQRNRLIPEDTAVYYCNKATYRVAGRDFDYWGQGTQVTVSS | high polyreactivity
25 | QVQLVESGGGLVQAGGSLRLSCAASGSIFSGYAMGWYRQAPGKERELVAAINSNGGRTYYADSVKGRFTISRDNAKNTVYLQMNSLKPEDTAVYYCNAAKRGWYYDYYYWGQGTQVTVSS | high polyreactivity
26 | QVQLVESGGGLVQAGGSLRLSCAASGFTFKSYAMGWYRQAPGKEREFVASISRRGGSTYYADSVKGRFTISRDNAKNTVYLQMNSLKPEDTAVYYCATDRPNWVFVDYNYWGQGTQVTVSS | high polyreactivity
27 | QVQLVESGGGLVQAGGSLRLSCAASGSTFNWYAMGWYRQAPGKEMELVAAITSTGGSTYADSVKGRFTISRDNAKNTVYLQMNSLKPEDTAVYYCNVDTSSPSRRDYDYWGQGTQVTVSS | low polyreactivity
28 | QVQLVESGGGLVQAGGSLRLSCAASGITFSFYAMGWYRQAPGKERELVADITRGGNTNYADSVKGRFTISRDNAKNTVYLQMNSLKPEDTAVYYCNARRRGAGGYDYWGQGTQVTVSS | high polyreactivity
29 | QVQLVESGGGLVQAGGSLRLSCAASGITFFTNVMGWYRPAPGKERELVAAISRSGTSTYYADSVKGRFTISRDNAKNTVYLQMNSLKPEDTAVYYCNADQIRGDGDYWGQGTQVTVSS | high polyreactivity
30 | QVQLVESGGGLVQAGGSLRLSCAASGSIFGDYAMGWYRQAPVKERELVATITWIGGSTYYADSVKGRFTISRDNAKNTVYLQMNSLTPEDTAVYYCAATKYVDVKYYYWGQGTQVTVSS | low polyreactivity
31 | QVQLVESGGGLVQAGGSLRLSCAASGSTFWGYAMGWYRQAPGTERELVAAITRNGGGTYYADSVKGRFTISRDNAKNTVYLQMNSLKPEDTAVYYCAATRRAYYLYGGQKMDYWGQGTQVTVSS | high polyreactivity
32 | QVQLQESGGGLVQAGGSLRLSCAASSNHSTLDVMGWYRQAPGKEREIVASIGSGGITNYADSVKGRFTISRDNAKNTVYLQMNSLKPEDTAVYYFAVLNQAYTDLIYWGQGTQVTVSS | high polyreactivity
33 | QVQLVESGGGLVQAGGSIRLSCAASGITFGRNTMGWYRQAPAKERELVAAIDSGGNTYADSVKGRFTISRDNAKNTVYLQMNSLKPEDTAVYYCAVDGYYLYYDYDYWGQGTQVTVSS | low polyreactivity
34 | QVQLVESGGGLVQAGGSLRLSCAASGRIFVYYAMGWYRQAPGQEREFVATISSTGGSTYYADSVKGRFTISRDNAKNTVYLQMNSLKPEDTAVYYCAVRGWYPGVRYDYWGQGTQVTVSS | low polyreactivity
35 | QVQLVESGGGLVQAGGSLSLICAASGTTFYYYAMGWYRQAPGKERELVAANTLRGTSTYYADSVKGRFTISRDNAKNTVDLQMNRLKPEDTAVYYCAVETYYSIFDIYDYWGQGTQVTVSS | low polyreactivity
36 | QVQLVESGGGLVQAGGSLRLSCAASGRIFNRYAMGWYRQAPGKERELVAAITSGGSTYYADSVKGRFTISRDNAKNTVYLPMNSLKREDTAFYYCAALPRSNSYGYCGQGTQVTVSS | high polyreactivity
37 | QVQLVESGGGLVQAGGSLRLSCAASGIIFYYNAMGWYRPAPGNERELVAAISGRGGSTYYADSVKGRVTISRDNAKNTVYLQMTSLKPEDTAVYYCAAARVGSRYGYDYWGQGTQGTVSS | low polyreactivity
38 | QVQLVESGGGLVQEGGSLRLSCAASGFTFAQYALGWYRQAPGNERELVAAISRRGGRTYYADSVTGRFTISRDIAKNTVYLQMTSLKPEDSAVSYCAADGGYQDDYDYWGQGTQVTVSS | high polyreactivity
39 | QVQLVESGGGLVQAGGSHRLSCADSGFILAYYAMGWYRPAPGKERELVAAISIGSSTDYADSVKGRFTISRDNAKNTVYLQMNSLKPEDTAVYYCAARDYYYEYDYWGQGTQVTVSS | low polyreactivity
40 | QVQLVESGGGLVQAGGSLRLSCAASGRIFSYYAMGWYRQAPGKERELVASISTSSGSTYYADSVKGRFTISRDNAKNTVYLQMNSLKPEDTAVYYCNADYTGYYRWRNDDYWGQGTQVTVSS | high polyreactivity
41 | QVQLVESGGGLVQAGGSLRLSCAASGFTLEPNTMGWYRQAPGKERELVAGISWSGGSTYYADSVKGRFTISRDNAKNTVYLQMNSLKPEDTAVYYCNDDSGWFCYDYWGQGTQVTVSS | low polyreactivity
